Assays:
[1] = target: T1, human Nup88 N-terminal domain (residues 1–493) (human, UniProt Q99567 1-493); experiment: SEC-MALS
T1 sequence (looked up): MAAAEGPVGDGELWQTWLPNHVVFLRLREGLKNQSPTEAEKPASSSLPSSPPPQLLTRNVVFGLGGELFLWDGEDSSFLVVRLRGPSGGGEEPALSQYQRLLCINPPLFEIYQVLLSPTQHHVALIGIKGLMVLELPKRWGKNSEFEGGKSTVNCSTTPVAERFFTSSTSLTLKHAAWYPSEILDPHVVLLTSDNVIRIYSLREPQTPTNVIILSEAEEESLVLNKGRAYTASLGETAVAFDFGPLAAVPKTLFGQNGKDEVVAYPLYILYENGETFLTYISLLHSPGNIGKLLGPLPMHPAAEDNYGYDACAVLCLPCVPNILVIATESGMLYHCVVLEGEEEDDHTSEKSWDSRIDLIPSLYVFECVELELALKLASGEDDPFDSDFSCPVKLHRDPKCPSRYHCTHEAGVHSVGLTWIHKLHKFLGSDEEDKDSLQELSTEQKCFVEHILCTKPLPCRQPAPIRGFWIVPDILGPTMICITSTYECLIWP

[2] = target: yNup82^NTD•yNup159^T pair (S. cerevisiae, UniProt P40368 1-452; P40477 1425-1460); experiment: SEC-MALS
yNup82^NTD•yNup159^T pair, sequence (P40368 1-452, chain 1 of 2): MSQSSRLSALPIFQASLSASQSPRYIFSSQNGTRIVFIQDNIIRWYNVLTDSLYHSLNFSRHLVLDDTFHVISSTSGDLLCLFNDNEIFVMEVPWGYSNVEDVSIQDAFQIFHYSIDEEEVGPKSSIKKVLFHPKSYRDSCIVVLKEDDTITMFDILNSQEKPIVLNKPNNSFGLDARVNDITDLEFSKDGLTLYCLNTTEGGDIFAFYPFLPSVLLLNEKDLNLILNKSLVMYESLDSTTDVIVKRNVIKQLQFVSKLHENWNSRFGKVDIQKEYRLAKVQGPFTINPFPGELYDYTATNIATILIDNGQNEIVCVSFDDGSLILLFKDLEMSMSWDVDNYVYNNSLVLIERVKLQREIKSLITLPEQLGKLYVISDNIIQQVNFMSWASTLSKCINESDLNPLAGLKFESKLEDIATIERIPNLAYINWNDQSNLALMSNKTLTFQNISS
yNup82^NTD•yNup159^T pair, sequence (P40477 1425-1460, chain 2 of 2): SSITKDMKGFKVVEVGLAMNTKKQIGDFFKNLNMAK

B1: mouse Nup98 autoproteolytic domain (residues 732–880) (domain or fragment, UniProt Q6PFD9 732-880, looked up)
chain: AGIVLTKVGYYTIPSMDDLAKITNEKGECIVSDFTIGRKGYGSIYFEGDVNLTNLNLDDIVHIRRKEVIVYVDDNQKPPVGEGLNRKAEVTLDGVWPTDKTSRCLIKSPDRLADINYEGRLEAVSRKQGAQFKEYRPETGSWVFKVSHF
- stoichiometry N [1]: 1
- stoichiometry N [2]: 1

Reference: article PMC4226653 (Journal of molecular biology, 2012)
